Data reported in US20190233542A1.

Columns and labels:
[1] = biological target: human PCSK9 (Proprotein Convertase Subtilisin/Kexin type 9) (human) (UniProt Q8NBP7); test: cell-based or functional assay
[2] = biological target: human PCSK9 (Proprotein Convertase Subtilisin/Kexin type 9) (human) (UniProt Q8NBP7); test: binding ELISA on human PCSK9
[3] = biological target: human PCSK9-mFc-biotin (human) (UniProt Q8NBP7); test: competitive ELISA, blocking of PCSK9 binding to LDL-R

Repatha (antibody)
IC50, LDL-uptake assay in HepG2 [1]: 77.6 nM | EC50 [2]: 0.044 nM | IC50 [3]: 2.21 nM
